Target: T1, human lysyl-tRNA synthetase (h-LysRS), wild type, full length (human, UniProt Q15046 1-597)
T1 construct: Human lysyl-tRNA synthetase (LysRS), full length, wild type; printed residue numbers (NTD 1-65, S207, linker 208-220) fit the cytosolic form; Dimer in the cryo-EM reconstructions; No removal of the His tag is described; also called wt LysRS; wt h-LysRS; source: E. coli BL21 (DE3), purified (PEI and ammonium sulfate precipitation, Ni-NTA, hydroxyapatite)
Experiment: cryo-EM structure; 10 uM h-LysRS-tRNALys3 (cellular modified, 1:1), 100 uM AIMP2-N36, 2.5 mM L-lysine, 2 mM AMP; complex formed 60 min at 4°C; 0.075% CHAPSO added before freezing
Conditions: both partners purified

T1 sequence (Q15046 whole entry): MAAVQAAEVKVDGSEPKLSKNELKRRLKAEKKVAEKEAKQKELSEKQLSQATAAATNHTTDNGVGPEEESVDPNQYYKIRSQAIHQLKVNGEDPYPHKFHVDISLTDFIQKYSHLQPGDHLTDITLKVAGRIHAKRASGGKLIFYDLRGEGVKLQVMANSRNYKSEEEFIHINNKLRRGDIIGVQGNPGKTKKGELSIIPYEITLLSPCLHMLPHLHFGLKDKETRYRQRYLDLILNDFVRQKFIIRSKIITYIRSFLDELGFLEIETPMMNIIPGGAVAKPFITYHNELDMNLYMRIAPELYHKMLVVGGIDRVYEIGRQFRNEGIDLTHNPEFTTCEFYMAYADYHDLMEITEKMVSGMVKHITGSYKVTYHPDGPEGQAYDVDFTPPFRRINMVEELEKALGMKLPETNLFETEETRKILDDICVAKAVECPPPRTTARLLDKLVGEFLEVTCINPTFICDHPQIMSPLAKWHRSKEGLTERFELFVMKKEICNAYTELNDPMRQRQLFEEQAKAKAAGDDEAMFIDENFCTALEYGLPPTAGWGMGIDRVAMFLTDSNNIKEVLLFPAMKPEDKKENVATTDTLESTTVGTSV

B1: AIMP2-N36 peptide (LysRS interacting N-terminal region of AIMP2) (peptide)
peptide: MPMYQVKPYHGGGAPLRVELPTCMYRLPNVHGRSYG
notes: also called AIMP2 peptide; p38; source: synthetic peptide, bought: Biosynth
  stoichiometry N: 2 copies per LysRS dimer
